Laboratory results taken from US20140377262A1.

What was measured:
[1] = target: HA protein of B/Florida/4/2006 (vaccine antigen) (influenza B virus B/Florida/4/2006)
[2] = target: HA protein of B/Florida/4/2006 (influenza B virus B/Florida/4/2006); assay: cell-based or functional assay
[3] = target: HA protein of B/Johannesburg/5/1999 (influenza B virus B/Johannesburg/5/1999); assay: cell-based or functional assay
[4] = target: HA protein of B/Malaysia/2506/2004 (influenza B virus B/Malaysia/2506/2004); assay: cell-based or functional assay
[5] = target: HA protein of B/Mie/1/1993 (influenza B virus B/Mie/1/1993); assay: cell-based or functional assay
[6] = target: HA protein of B/Shandong/7/1997 (influenza B virus B/Shandong/7/1997); assay: cell-based or functional assay
[7] = target: HA protein of B/Shanghai/361/2002 (influenza B virus B/Shanghai/361/2002); assay: cell-based or functional assay
[8] = target: HA protein of B/Victoria/2/1987 (influenza B virus B/Victoria/2/1987); assay: cell-based or functional assay
[9] = target: HA protein of B/Yamanashi/166/1998 (influenza B virus B/Yamanashi/166/1998); assay: cell-based or functional assay

B1: HuMAb 5A7 (human monoclonal antibody from hybridoma) (antibody, V domains shown)
VH: QVQLVESGGDVVQPGRSLRLSCAASGFTFNNYGMHWVRQAPGKGLEWVAVVWYDGLIKYYADSVKGRFTISRDNSKNTLYLQMNTLRAEDMGVYYCARDLQPPHSPYGMDVWGQGTTVTVSS
VL: QSVLTQPPSASGTPGQRVTISCSGSSSNIGSNDVYWYQNLPGTAPKLLIYNNNQRPSGVPDRFSGSKSGTSASLAISGLRSEDEADYYCAAWDDSLTVSFGTGTKVTVL
Kd [1]: < 5.6 nM
Fusion inhibition [2]: 100 µg/mL
HI [2]: 25 µg/mL
VN50 [2]: 6.25 µg/mL
VN50 [3]: 6.25 µg/mL
VN50 [4]: 6.25 µg/mL
VN50 [5]: 6.25 µg/mL
VN50 [6]: 25 µg/mL
VN50 [7]: 6.25 µg/mL
VN50 [8]: 25 µg/mL
VN50 [9]: 6.25 µg/mL
